For the data set, the system named is O=[N+]([O-])c1ccc(OP(=O)(O)O)cc1. Description: p-nitrophenol release, A405, initial velocity, Michaelis-Menten fit. To be noted: 10 mM HEPES pH 7.5, 150 mM NaCl, 20 °C, 200 nM enzyme. It is filed as biochemical, Escherichia coli.

Excerpt: p-nitrophenol release, A405, initial velocity, Michaelis-Menten fit on EcWzb

Usually Km stands for the concentration of substrate that gives half-maximal velocity. The kcat is the number of substrate molecules converted per active site and unit of time at saturation. A word on the kcat/Km: it is the turnover number divided by the Michaelis constant. In the case of “EcWzb (Escherichia coli K-12; INS39EKSR)”, for the setting “A39_L40insEKSR”, the Km came out at 2530 ± 30 µM, the kcat amounted to 9.34 ± 0.1 s⁻¹ and the kcat/Km was found to be 3690 M⁻¹ s⁻¹.
Consider “EcWzb (Escherichia coli K-12; INS39AAAA)”, for which, where the note is “A39_L40insAAAA”, the Km amounted to 2050 ± 100 µM, the kcat was 6.09 ± 0.09 s⁻¹ and the kcat/Km came out at 2970 M⁻¹ s⁻¹.
For the substance EcWzb (Escherichia coli K-12), the Michaelis constant (Km) is 3480 ± 240 µM, the kcat was 2.84 ± 0.1 s⁻¹ and the kcat/Km was determined as 820 M⁻¹ s⁻¹.

The record behind these values is article PMC7948962, “Wzb of Vibrio vulnificus represents a new group of low-molecular-weight protein tyrosine phosphatases with a unique insertion in the W-loop” (The Journal of Biological Chemistry, 2021).
